Results as given in patent publication US20120164161A1 (AFFITECH RESEARCH, published 2012).

T1: human CC chemokine receptor 4 (CCR4) (human, UniProt P51679 1-360)
T1 sequence (looked up): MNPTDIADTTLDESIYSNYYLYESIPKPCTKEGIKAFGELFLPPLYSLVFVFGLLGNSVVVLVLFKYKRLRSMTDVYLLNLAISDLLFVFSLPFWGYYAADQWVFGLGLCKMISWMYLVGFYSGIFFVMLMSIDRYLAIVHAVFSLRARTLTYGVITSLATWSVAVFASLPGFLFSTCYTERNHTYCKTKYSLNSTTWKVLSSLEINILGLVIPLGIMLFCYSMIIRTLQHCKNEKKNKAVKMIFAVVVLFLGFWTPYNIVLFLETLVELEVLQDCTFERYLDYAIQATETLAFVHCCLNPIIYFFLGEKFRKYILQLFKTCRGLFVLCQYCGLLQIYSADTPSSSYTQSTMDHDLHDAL

T2: monkey (Macaca mulatta) CCR4 (monkey (Macaca mulatta), UniProt F7GUA3 1-360)
T2 construct: also called monkey CCR4
T2 sequence: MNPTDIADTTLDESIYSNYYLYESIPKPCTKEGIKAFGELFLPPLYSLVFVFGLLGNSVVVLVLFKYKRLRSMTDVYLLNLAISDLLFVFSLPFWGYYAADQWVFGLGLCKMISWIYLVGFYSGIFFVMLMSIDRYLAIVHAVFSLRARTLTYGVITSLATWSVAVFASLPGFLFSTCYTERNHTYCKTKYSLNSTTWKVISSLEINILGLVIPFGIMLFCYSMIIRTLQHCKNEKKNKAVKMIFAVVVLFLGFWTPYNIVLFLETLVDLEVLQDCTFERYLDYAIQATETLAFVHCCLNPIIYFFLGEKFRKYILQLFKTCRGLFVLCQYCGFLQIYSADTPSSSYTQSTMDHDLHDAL

T3: mouse CCR4 (mouse, UniProt P51680 1-360)
T3 construct: whole, on cells; also called murine CCR4
T3 sequence (looked up): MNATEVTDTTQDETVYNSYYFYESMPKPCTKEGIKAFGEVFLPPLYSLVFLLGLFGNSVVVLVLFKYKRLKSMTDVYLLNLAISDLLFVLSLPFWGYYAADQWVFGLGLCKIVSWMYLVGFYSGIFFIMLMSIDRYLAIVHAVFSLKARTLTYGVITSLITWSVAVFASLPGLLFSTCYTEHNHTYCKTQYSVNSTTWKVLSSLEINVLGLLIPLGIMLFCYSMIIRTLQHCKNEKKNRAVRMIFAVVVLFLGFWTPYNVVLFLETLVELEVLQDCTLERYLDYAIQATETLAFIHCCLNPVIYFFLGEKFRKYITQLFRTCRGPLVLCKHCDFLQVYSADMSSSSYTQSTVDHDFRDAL


Key:
[1] = molecular target: T1, human CC chemokine receptor 4 (CCR4); test: cell-based or functional assay
[2] = molecular target: T1, human CC chemokine receptor 4 (CCR4); test: flow cytometry on DT40 cells expressing human CCR4; scFv cross-linked with mouse anti-Myc antibody, detected with RPE anti-mouse IgG; MFI (PE-signal)
Protocol: For the flow cytometry experiments, the cells were harvested from the culture flasks, washed 2 times with PBS, re-suspended in PBS with 0.2% BSA and 0.09% NaN3 and finally aliquoted 1×10^5 cells per well into V-shaped 96-well plates (Greiner Bio-One, Frickenhausen, Germany). Cells were centrifuged at 400×g for 5 min and then incubated at 4° C. for 60 min with different scFv dilutions.
All scFv preparations were pre-incubated with a mouse anti-myc-antibody (9E10.2, Diatec, Oslo, Norway) to cross-link scFvs prior adding to the cells and diluted 3-fold, starting at a concentration of 10 μg/ml.
After washing with PBS with 0.2% BSA and 0.09% NaN3, the cells were stained with 1 μg/ml of RPE-conjugated goat anti-mouse IgG (AbD Serotec, Duesseldorf, Germany) for 30 minutes at 4° C. The stained cells were washed, re-suspended in 200 μl PBS with 0.2% BSA and 0.09% NaN3 and transferred to a U-shaped 96-well plate (Corning, Schiphol-Rijk, The Netherlands) for acquisition on EasyCyte flow cytometer (Guava Technologies, Hayward, Calif., USA).

[3] = molecular target: T1, human CC chemokine receptor 4 (CCR4); test: cell-based or functional assay; remark: listed apart in the source
[4] = molecular target: T1, human CC chemokine receptor 4 (CCR4); test: flow cytometry on CCRF-CEM cells; defucosylated IgG1, detected with RPE anti-human IgG; Median-PE [panel CCRF-CEM]
Protocol: (§1) All cells were re-suspended in PBS with 0.2% BSA and 0.09% NaN3 and finally aliquoted 1×10^5 cells per well into V-shaped 96-well plates (Greiner Bio-One, Frickenhausen, Germany). Cells were centrifuged at 400×g for 5 min and then incubated at 4° C. for 60 min with different IgG dilutions. For binding in presence of human serum, CCRF-CEM cells were incubated with different IgG-solutions at either 10% or 50% of human serum (Sigma Aldrich, St Louis, Mo., USA) at 37° C. for 60 min.

[5] = molecular target: T1, human CC chemokine receptor 4 (CCR4); test: cell-based or functional assay; remark: listed apart in the source
[6] = molecular target: T2, monkey (Macaca mulatta) CCR4; test: flow cytometry on transiently transfected HEK-293T/17 cells, IgG 1 ug/ml (data not shown)
Protocol: (§2) For transient transfection, Hek293T/17 cells were seeded as 2×10^6 cells in a T75 (NUNC) flask. 48 h after seeding, the cells were transfected with Fugene (ROCHE). 40 μl Fugene and 16 μg DNA are used per T75. The cells were used for assays 48 h after transfection.
(§3) Non-transfected (CCR4 negative) cells served as a negative control. The cells were cultivated further for 48 hours under regular conditions and harvested form flasks as described above. One times 10^5 cells per well were aliquoted into V-shaped 96-well plates (Greiner Bio-One, Frikenhausen, Germany). […] The samples were then washed twice by centrifugation and re-suspension in 150 μl FACS buffer. […] The samples were washed twice as described above and re-suspended in 250 μl FACS buffer followed by transfer into a U-shaped 96-well plate (Corning, Schiphol-Rijk, Netherlands) for flow cytometry on FACSCantoII (BD Biosciences, San Jose, Calif.).

[7] = molecular target: T1, human CC chemokine receptor 4 (CCR4); test: flow cytometry competition; IgG titrated from 5 ug/ml against fixed Alexa647 MDC-SNAP (50 nM); competitor MDC-SNAP
[8] = molecular target: T1, human CC chemokine receptor 4 (CCR4); test: flow cytometry on Hut78 cells (CCR4-positive); defucosylated IgG1, detected with RPE anti-human IgG; Median-PE [panel Hut78]
Protocol: as §1

[9] = molecular target: T1, human CC chemokine receptor 4 (CCR4); test: cell-based or functional assay; remark: listed apart in the source
mouse CCR4 = molecular target: T3, mouse CCR4; test: flow cytometry on transiently transfected HEK-293T/17 cells, IgG 1 ug/ml
Protocol: as §2, §3

[10] = molecular target: T1, human CC chemokine receptor 4 (CCR4); test: flow cytometry competition; IgG titrated from 2.5 ug/ml against fixed biotinylated TARC; competitor biotinylated TARC
[11] = molecular target: T1, human CC chemokine receptor 4 (CCR4); test: cell-based or functional assay; remark: listed apart in the source

Row | Binder | IC50 of inhibition of TARC-mediated Ca-Flux in CCRF-CEM cells [1] | EC50 (read off the curve) [2] | Inhibition of MDC (Ca-Flux), Blockage of signaling in % at 10 µg/ml IgG [3] | Inhibition of TARC (Ca-Flux), IC50 [3] | EC50 (read off the curve) [4] | ADCC on CCRF-CEM cells with human PBMCs, EC50 [5] | ADCC on L-428 cells with human PBMCs, EC50 [5] | binding result [6] | IC50 [7] | EC50 (read off the curve) [8] | Inhibition of CCL17/TARC-induced migration of CCRF-CEM cells, IC50 [9] | Inhibition of CCL22/MDC-induced migration, Blockage of migration in % (IgG 10 µg/ml) [9] | binding result (mouse CCR4) | IC50 [10] | IC50 of inhibition of CCL17/TARC-induced invasion of 786-O cells, CCL17/TARC 25 nM [11] | IC50 of inhibition of CCL17/TARC-induced invasion of 786-O cells, CCL17/TARC 125 nM [11] | ADCC on CCRF-CEM cells, Max. Killing (%; nM IgG) [5] | ADCC on L-428 cells, Max. Killing (%; nM IgG) [5]
1 | 603 scFv (scFv, not shown: small tags and cut ends, Expressed in TG1 bacteria; also called scFv 603; antibody 603 (single chain form)) scFv: QVQLVQSGAEVKKPGSSVKVSCKASGGTFSSYAMSWVRQAPGQGLEWMGGIIPIFGTVNYAQKFQGRVTMTRDTSTSTVYMELSSLRSDDTAVYYCARRRGAKFDYWGQGTLVTVSSKLSGSASAPKLEEGEFSEARVSYVLTQPPSASGTPGQSVTISCSGSTSNIGSHYVVWYQQLPGTAPRLLIYRNHQRPSGVPDRLSGSKSGTSASLAIGGLRSEDEADYYCAVWDDTLSGWVFGGGTKLTVL | 2 pM | ~0.3 µg/mL | – | – | – | – | – | – | – | – | – | – | – | – | – | – | – | –
2 | IgG form of antibody 406 (defucosylated IgG1) (antibody, V domains shown, Human IgG1, lambda light chain; produced in presence of Kifunensine (defucosylated); Biotinylated via cysteines for the human serum experiment) VH: QVQLVQSGAEVKKPGSSVKVSCKASEGTFSSYAMSWVRQAPGQGLEWMGGIIPIFGTVNYAQKFQGRVTMTRDTSTSTVYMELSSLRSDDTAVYYCARRGGSYFDYWGQGTLVTVSS VL: SYVLTQPPSASGTPGQSVTISCSGSTSNIGSHYVSWYQQLPGTAPRLLIYRNHQRPSGVPDRLSGSKSGTSASLAISGLRSEDEADYYCAVWDAKYRGWVFGGGTKLTVLG | – | – | 74% | 28 pM | ~200 pM | 99.9 pM | 704 pM | binds | 270 pM | ~80 pM | 178 pM | 49% | binds | 940 pM | – | – | 121 % (at 1.4 nM IgG) | 78 % (at 7 nM IgG)

Now from value to binder, other results behind:

Row | IC50 of inhibition of TARC-mediated Ca-Flux in CCRF-CEM cells [1] | EC50 (read off the curve) [2] | Inhibition of MDC (Ca-Flux), Blockage of signaling in % at 10 µg/ml IgG [3] | Inhibition of TARC (Ca-Flux), IC50 [3] | EC50 (read off the curve) [4] | ADCC on CCRF-CEM cells with human PBMCs, EC50 [5] | ADCC on L-428 cells with human PBMCs, EC50 [5] | binding result [6] | IC50 [7] | EC50 (read off the curve) [8] | Inhibition of CCL17/TARC-induced migration of CCRF-CEM cells, IC50 [9] | Inhibition of CCL22/MDC-induced migration, Blockage of migration in % (IgG 10 µg/ml) [9] | binding result (mouse CCR4) | IC50 [10] | IC50 of inhibition of CCL17/TARC-induced invasion of 786-O cells, CCL17/TARC 25 nM [11] | IC50 of inhibition of CCL17/TARC-induced invasion of 786-O cells, CCL17/TARC 125 nM [11] | Binder | ADCC on CCRF-CEM cells, Max. Killing (%; nM IgG) [5] | ADCC on L-428 cells, Max. Killing (%; nM IgG) [5]
3 | – | – | 74% | 39 pM | ~60 pM | 114 pM | 708 pM | binds | 280 pM | ~60 pM | 158 pM | 50% | binds | 510 pM | – | – | IgG form of antibody 306 (defucosylated IgG1) (antibody, V domains shown, Human IgG1, lambda light chain; produced in presence of Kifunensine (defucosylated); Biotinylated via cysteines for the human serum experiment) VH: QVQLVQSGAEVKKPGSSVKVSCKASGGTFSSYAMSWVRQAPGQGLEWMGGIIPIFGTVNYAQKFQGRVTMTRDTSTSTVYMELSSLRPDDTAVYYCARRGGSYFDYWGQGTLVTVSS VL: SYVLTQPPSASGTPGQSVTISCSGSTSNIGSHYVSWYQQLPGTAPRLLIYRNHQRPSGVPDRLSGSKSGTSASLAISGLRSEDEADYYCAVWDAKYRGWVFGGGTKLTVLG | 118 % (at 1.4 nM IgG) | 88 % (at 7 nM IgG)
4 | – | – | 64% | 13 pM | ~20 pM | 5.3 pM | 233 pM | binds | 110 pM | ~50 pM | 39 pM | 39% | binds | 870 pM | 0.12 µg/mL | 1.33 µg/mL | IgG form of antibody 503 (defucosylated IgG1) (antibody, V domains shown, Human IgG1, lambda light chain; produced in presence of Kifunensine (defucosylated); Biotinylated via cysteines for the human serum experiment) VH: QVQLVQSGAEVKKPGSSVKVSCKASEGTFSSYAMSWVRQAPGQGLEWMGGIIPIFGTVNYAQKFQGRVTMTRDTSTSTVYMELSSLRSDDTAVYYCARRRGAKFDYWGQGTLVTVSS VL: SYVLTQPPSASGTPGQSVTISCSGSTSNIGSHYVVWYQQLPGTAPRLLIYRNHQRPSGVPDRLSGSKSGTSASLAIGGLRSEDEADYYCAVWDDTLSGWVFGGGTKLTVLG | 108 % (at 1.4 nM IgG) | 93 % (at 7 nM IgG)
